# B1: BBIssPal: the palmityl disulfide conjugate of BBI (conjugate, UniProt P01055 40-110, looked up)
# Bowman-Birk type proteinase …: DDESSKPCCDQCACTKSNPPQCRCSDMRLNSCHSACKSCICALSYPAQCFCVDITDFCYEPCKPSEDDKEN
# modifications: palmityl disulfide; 125I
# notes: the palmityl disulfide conjugate of BBI
# Test system: C3H 10T1/2(clone 8) cells
# Assay: In vitro transformation assay (MCA-induced)
# Assay type: cell-based
# Protocol: Transformation assays were carried out using C3H 10T1/2(clone 8) cells according to the published recommendations [Reznikoff, C. A., et al., Cancer. Res., 33:3239-3249 (1973); Reznikoff, C. A., et al., Cancer. Res., 33:3231-3238 (1973)]. Stock cultures of mycoplasma-free cells were maintained by passing 50,000 cells per 75 cm^2 flask every seven days. Using this schedule, the cells were always passed approximately 2 days before reaching confluence. The stock culture was grown in Eagle's basal medium supplemented with 10% FBS, penicillin (100 units), and streptomycin (100 μg) and used for the transformation assays at passages of 9 to 14. The cells were passed by treating the stock cells with trypsin (0.1%) in PBS for 5 min and quenching the trypsin with 5 ml of the medium. This procedure was adapted to minimize spontaneous transformation in the stock cultures and maximize the plating efficiency in the petri dishes. The FBS stock used in the cultures was pre-screened to ensure that the serum was able to support the expression and the growth of the transformed cells.
# For the transformation assays, C3H 10T1/2 cells (1000/dish) were seeded into 60 mm petri dishes and allowed to grow in a humidified 5% CO2 atmosphere in Eagle's basal medium, supplemented with 10% FBS, penicillin (100 units), and streptomycin (100 μg), for 24 hr. Subsequently, the cells were initiated by treatment with 25 μl of the 3-methylcholanthrene (MCA) in acetone stock solution ([…]) to a final concentration of 1 μg/ml of MCA (5 μg/5 ml). The cells were allowed to grow in the presence of the carcinogen or solvent for 24 hr, and the medium in each dish was then replaced with fresh medium containing no carcinogen or solvent. The medium in the dishes was replaced twice per week for the first two weeks of the assay, and thereafter once a week for the remainder four weeks of the assay. In the experiments designed to determine the transformation inhibitory activity of the conjugates, the cells were maintained in the medium containing the conjugates (1 μg/ml) for the first three weeks of the assay; thereafter, the cells were maintained in medium containing no added conjugates.
# Six weeks after the carcinogen treatment, the cells were inspected under a microscope for adherence to the culture dishes and were washed with PBS and then fixed in 100% methanol. The fixed monolayers were then stained with Giemsa stain. Twenty dishes per group were treated in each experiment. In addition to the test groups, all the transformation assays contained at least three other groups: negative control (not treated with carcinogen or solvent), acetone control (treated with 25 μl of acetone), and positive control [treated with MCA (1 μg/ml) in 25 μl of acetone]. The transformed foci (>3 mm in diameter) in the plates were studied under a microscope and classified according to published guidelines as types I, II, or III [Landolph, J. R., Transfomatin assay of established cell lines: Mechanism and Application (ed. Kakunaga, T., and Yamasaki, H.) IARC Scientific Publications, Lyon, France pp. 185-201 (1985)]. Briefly, type III foci were dense, multilayered, basophilic, areas of cell growth which stained to a deep blue color with Giemsa and had rough crisscrossed edges. Type II foci were also dense, multilayered, areas of cell growth, but were stained to a purple color with Giemsa and had smoother, more defined edges compared to Type III foci. Type I foci were not scored in the assay.
# BBI, either as the free protein or in conjugated form to palmitic or oleic acid, was added to the cultures at 1.0 μg/ml for the first three weeks of the transformation assay period starting immediately after the MCA treatment. MCA-treated cells were exposed to 3-methylcholanthrene, dissolved in 25 μl of acetone, at a concentration of 1 μg/ml for 24 hr. Acetone-treated cells were exposed to 25 μl of acetone for 24 hr only. […]
# [1] = MCA 1 μg/ml 24 hr, conjugates 1.0 μg/ml first three weeks, scored at six weeks
molecule,measurement,setting,value
B1,Retention of anti-transformation activity of BBI,1.0 μg/ml,retained the original biological activity of BBI
same,Transformed foci,"MCA 1 μg/ml 24 hr, conjugates 1.0 μg/ml first three weeks",one type II focus out of the 20 dishes
same,Fraction of dishes containing transformed foci,[1],0.05
same,No. of dishes with transformed foci/No. of dishes,[1],1/20

# From US6093692A, “Method and compositions for lipidization of hydrophilic molecules” (The University of Southern California, priority 1997, dated 2000)
